Measured values: US20250361274A1, “PEPTIDE AND PEPTIDE-CONTAINING AGENT” (PEPTIDREAM INC., priority 2022, published 2025)
pIC50: −log10 of the molar value. Numbered stars: 1 amine (or outer) side, 2 acyl side, 3 side chain; on linkers, the order of the positions; unused ones are H or OH. Bridge positions count the residues as written; N and C are the ends. Square brackets hold non-standard residues; d marks the D form. Side chains are listed from the residue outwards. Ends that are not written are not given here. Peptide text beside a SMILES is read from it. I, II: the chains in the order shown. * marks the point of attachment. ξ: configuration not given here. X6 = N=C(N)NCCC[C@H](CC(=O)[C@H](CCCCNC(=O)N1CCN(CC(=O)O)CC1)N[*:2])C(=O)C[C@@H](Cc1ccc(-c2ccccc2)nc1)C(=O)[*:1]; X7 = O=C(O)CCC(NC(=O)CCNC(=O)[C@H](CSCC(=O)[*:1])CC(=O)[C@H](CO)N[*:2])C(=O)O; X4 = O=C(O)c1ccc(C[C@H](N[*:1])C(=O)C[C@@H](CO)C(=O)[*:2])cc1; 3Pal(6-Ph) = N[C@@H](Cc1ccc(-c2ccccc2)nc1)C(=O)O; Phe(4-COOH) = N[C@@H](Cc1ccc(C(=O)O)cc1)C(=O)O; NMePhe(4-Me) = CN[C@@H](Cc1ccc(C)cc1)C(=O)O; Piperazinyl(4-CH2COOH) = O=C(O)CN1CCN(*)CC1; Bip = N[C@@H](Cc1ccc(-c2ccccc2)cc1)C(=O)O; Nle(6-COOH) = N[C@@H](CCCCC(=O)O)C(=O)O; X1 = N=C(CN)NCCC[C@H](N[*:1])C(=O)[*:2]; Phe(4-F) = N[C@@H](Cc1ccc(F)cc1)C(=O)O; cisHyp = O=C(O)[C@@H]1C[C@H](O)CN1; Hyp = O=C(O)[C@@H]1C[C@@H](O)CN1; NMeF = CN[C@@H](Cc1ccccc1)C(=O)O; Aad = N[C@@H](CCCC(=O)O)C(=O)O; Cha = N[C@@H](CC1CCCCC1)C(=O)O; Abu = CC[C@H](N)C(=O)O; X5 = O=C(C[*:1])[*:2]; CO = O=C([*:1])[*:2]; ξC = NC(CS)C(=O)O; βAla = NCCC(=O)O

Columns and labels:
BMP4 = biological target: T1, BMP4 (Homo sapiens, UniProt P12644); experiment: BMP4 signal transduction inhibitory activity: SMAD1 phosphorylation by BMP4 stimulus, AlphaLISA SureFire, A549 cells; format: cell-based; settings: for aLISA BMP4 (0.2 nM) % inh: BMP4 0.2 nM stimulus, peptide conc. in assay 0.2, 2, 20 nM; for aLISA BMP4: A549 cells, peptides of Synthesis 2
T1 sequence (P12644 293-408): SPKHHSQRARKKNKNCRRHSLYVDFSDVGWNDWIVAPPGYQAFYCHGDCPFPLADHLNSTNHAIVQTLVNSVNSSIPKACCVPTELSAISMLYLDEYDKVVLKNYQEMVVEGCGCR

BMP7 = biological target: T2, BMP7 (Homo sapiens, UniProt P18075); experiment: BMP7 signal transduction inhibitory activity: SMAD1 phosphorylation by BMP7 stimulus, A549 cells; format: cell-based; settings: for aLISA BMP7 (10 nM) % inh: BMP7 10 nM stimulus, peptide conc. in assay 1, 10, 100 nM; for aLISA BMP7: A549 cells, peptides of Synthesis 2
T2 sequence (P18075 293-431): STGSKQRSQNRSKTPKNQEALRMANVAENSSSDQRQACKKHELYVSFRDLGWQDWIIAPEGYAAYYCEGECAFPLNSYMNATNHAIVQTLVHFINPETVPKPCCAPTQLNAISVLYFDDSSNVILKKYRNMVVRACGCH
Summary of the method: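 Inhibition was measured as loss of BMP7-induced SMAD1 phosphorylation, using 10 nM BMP7 on A549 cells. Most peptides were given as three-concentration sets, such as 1/10/100, 10/100/1,000, 100/300/1,000 or 10/30/90 nM. Others were given as eight 1/3-ratio dilutions from 100 or 1,000 nM, alongside Noggin as control.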

[1] = inhibition of SMAD1 phosphorylation by BMP4 stimulus, classes A-C, ND
[2] = inhibition of SMAD1 phosphorylation by BMP7 stimulus, classes A-D, ND

## 413 ([Phe(4-F)]G[NMeF]G[3Pal(6-Ph)]GDE[Cha][Aad][NMePhe(4-Me)]L[Phe(4-COOH)]C[βAla][dE]) [compound 413]
BMP4
  aLISA BMP4 (0.2 nM) % inh: ND (the inhibitory activity was less than 30% at the maximum concentration evaluated)
BMP7
  aLISA BMP7 (10 nM) % inh: D (showed less than 30% of inhibitory activity in 10 nM-addition zone and showed 30% or more of inhibitory activity in 100 nM-addition zone)

## 414 (FG[NMeF]G[3Pal(6-Ph)]GDE[Cha][Aad][NMeF]L[cisHyp]C-NH2; not fully specified) [compound 414]
BMP4
  aLISA BMP4 (0.2 nM) % inh: ND (the inhibitory activity was less than 30% at the maximum concentration evaluated)
BMP7
  aLISA BMP7 (10 nM) % inh: D (showed less than 30% of inhibitory activity in 10 nM-addition zone and showed 30% or more of inhibitory activity in 100 nM-addition zone)

## 415 (FGFGAGDEAEFLPCAE; not fully specified; MOD_RES 3 F represents Methyl-L-phenylalanine(MeF); MOD_RES 5 A represents (S)-2-Amino-3-(6-phenylpyridin-3-yl)propanoic acid(3Py6Ph); MOD_RES 9 A represents (S)-2-Amino-3-cyclohexylpropanoic acid(Cha); MOD_RES 10 E represents L-2-Amino adipic acid (Hgl); MOD_RES 11 F represents Methyl-L-phenylalanine(MeF); MOD_RES 13 P represents (2S,4S)-4-Hydroxypyrrolidine-2-carboxylic acid(P4Sh); MOD_RES 15 A) [compound 415]
BMP4
  aLISA BMP4 (0.2 nM) % inh: ND (the inhibitory activity was less than 30% at the maximum concentration evaluated)
BMP7
  aLISA BMP7 (10 nM) % inh: D (showed less than 30% of inhibitory activity in 10 nM-addition zone and showed 30% or more of inhibitory activity in 100 nM-addition zone)

## 416 ([Phe(4-F)]G[NMeF]G[3Pal(6-Ph)]GDE[Cha][Aad][NMePhe(4-Me)]L[cisHyp]C-NH2; not fully specified) [compound 416]
BMP4
  aLISA BMP4 (0.2 nM) % inh: ND (the inhibitory activity was less than 30% at the maximum concentration evaluated)
BMP7
  aLISA BMP7 (10 nM) % inh: D (showed less than 30% of inhibitory activity in 10 nM-addition zone and showed 30% or more of inhibitory activity in 100 nM-addition zone)

## 418 (FG[NMeF]G[3Pal(6-Ph)]GDE[Cha][Aad][NMeF]L[Abu]C-NH2; not fully specified) [compound 418]
BMP4
  aLISA BMP4 (0.2 nM) % inh: ND (the inhibitory activity was less than 30% at the maximum concentration evaluated)
BMP7
  aLISA BMP7 (10 nM) % inh: D (showed less than 30% of inhibitory activity in 10 nM-addition zone and showed 30% or more of inhibitory activity in 100 nM-addition zone)

## 419 (FG[NMeF]G[3Pal(6-Ph)]GDE[Cha][Aad][NMeF]L[Abu]C[βAla][dE]) [compound 419]
BMP4
  aLISA BMP4 (0.2 nM) % inh: ND (the inhibitory activity was less than 30% at the maximum concentration evaluated)
BMP7
  aLISA BMP7 (10 nM) % inh: D (showed less than 30% of inhibitory activity in 10 nM-addition zone and showed 30% or more of inhibitory activity in 100 nM-addition zone)

## 420 ([Phe(4-F)]G[NMeF]G[3Pal(6-Ph)]GDE[Cha][Aad][NMePhe(4-Me)]L[Abu]C-NH2; also: cyclic peptide, ring closure not given here) [compound 420]
BMP4
  aLISA BMP4 (0.2 nM) % inh: ND (the inhibitory activity was less than 30% at the maximum concentration evaluated)
BMP7
  aLISA BMP7 (10 nM) % inh: D (showed less than 30% of inhibitory activity in 10 nM-addition zone and showed 30% or more of inhibitory activity in 100 nM-addition zone)

## 421 ([Phe(4-F)]G[NMeF]G[3Pal(6-Ph)]GDE[Cha][Aad][NMePhe(4-Me)]L[Abu]C[βAla][dE]; also: cyclic peptide, ring closure not given here) [compound 421]
BMP4
  aLISA BMP4 (0.2 nM) % inh: ND (the inhibitory activity was less than 30% at the maximum concentration evaluated)
BMP7
  aLISA BMP7 (10 nM) % inh: D (showed less than 30% of inhibitory activity in 10 nM-addition zone and showed 30% or more of inhibitory activity in 100 nM-addition zone)

## CC(C)[C@@H]1NC(=O)[C@H](Cc2ccc(C(=O)O)cc2)NC(=O)[C@H](C(C)C)NC(=O)[C@H](CCCNC(=N)N)NC(=O)[C@H](CCC(=O)O)NC(=O)CSC[C@@H](C(=O)NCC(N)=O)NC(=O)[C@H](CO)NC(=O)[C@H](Cc2ccc(C(=O)O)cc2)NC(=O)[C@H](Cc2ccc(C(=O)O)cc2)NC(=O)[C@H](Cc2ccc(O)cc2)NC(=O)[C@H](Cc2ccc(-c3ccccc3)cc2)NC(=O)[C@@H]2C[C@@H](O)CN2C(=O)[C@H](Cc2ccc(O)cc2)NC(=O)[C@H](CCCCNC(=O)N2CCN(CC(=O)O)CC2)NC(=O)[C@H](Cc2ccc(-c3ccccc3)nc2)NC(=O)[C@H](CCCNC(=N)N)NC(=O)[C@H](CCCCNC(=O)N2CCN(CC(=O)O)CC2)NC1=O [Peptide 277] ({CH2CO}-ERV[Phe(4-COOH)]VK([CO-Piperazinyl(4-CH2COOH)])R[3Pal(6-Ph)]K([CO-Piperazinyl(4-CH2COOH)])Y[Hyp][Bip]Y[Phe(4-COOH)][Phe(4-COOH)]SCG-NH2; thioether N-17)
BMP4; Table 2-2, 277 from 20 nM (1/3), 417 from 300 nM (1/4), ND = IC50 was not calculated
  pIC50: 10.14
BMP7; Table 2-2, 277 from 1,000 nM (1/3), 417 from 300 nM (1/4)
  pIC50: 6.34

## CC(C)C[C@@H]1NC(=O)[C@H](Cc2ccc(O)cc2)NC(=O)[C@H](C(C)C)NC(=O)[C@H](CCCNC(=N)N)NC(=O)[C@H](CCCCC(=O)O)NC(=O)CSC[C@@H](C(=O)NCCC(=O)NC(CCC(=O)O)C(=O)O)CC(=O)[C@H](CO)NC(=O)[C@H](Cc2ccc(C(=O)O)cc2)NC(=O)[C@H](Cc2ccc(C(=O)O)cc2)NC(=O)[C@H](Cc2ccc(O)cc2)NC(=O)[C@H](Cc2ccc(-c3ccccc3)cc2)NC(=O)[C@H](C(C)C)NC(=O)[C@H](Cc2ccc(O)cc2)NC(=O)[C@@H]2CCCN2C(=O)[C@H](Cc2ccc(-c3ccccc3)nc2)NC(=O)[C@H](CCCNC(=N)CN)NC(=O)[C@H](CC(=O)O)NC1=O (stereo partly drawn) [SEQ ID No. 84] ([Nle(6-COOH)]RVYLD[X1][3Pal(6-Ph)]PYV[Bip]Y[Phe(4-COOH)][Phe(4-COOH)]; linker N-C via X7)
BMP4; [1]
  aLISA BMP4: A (showed an inhibitory activity of 50% or more in a zone to which the peptide was added to in an amount of 0.2 nM)
BMP7; [2]
  aLISA BMP7: C (showed less than 50% of inhibitory activity in 10 nM-addition zone and showed 50% or more of inhibitory activity in 100 nM-addition zone)

## CC(C)C[C@@H]1NC(=O)[C@H](Cc2ccc(O)cc2)NC(=O)[C@H](C(C)C)NC(=O)[C@H](CCCNC(=N)N)NC(=O)[C@H](CCCCC(=O)O)NC(=O)CSC[C@@H](C(=O)NCC(N)=O)NC(=O)[C@H](CO)NC(=O)[C@H](Cc2ccc(C(=O)O)cc2)NC(=O)[C@H](Cc2ccc(C(=O)O)cc2)NC(=O)[C@H](Cc2ccc(O)cc2)NC(=O)[C@H](Cc2ccc(-c3ccccc3)cc2)NC(=O)[C@H](C(C)C)NC(=O)[C@H](Cc2ccc(O)cc2)NC(=O)[C@H](CO)NC(=O)[C@H](Cc2ccc(-c3ccccc3)nc2)NC(=O)[C@H](CCCNC(=N)CN)NC(=O)[C@H](CC(=O)O)NC1=O [SEQ ID No. 87] ({CH2CO}-[Nle(6-COOH)]RVYLD[X1][3Pal(6-Ph)]SYV[Bip]Y[Phe(4-COOH)][Phe(4-COOH)]SCG-NH2; thioether N-17)
BMP4
  BMP4 inhibitory activity (in words): same level of the BMP4 inhibitory activity as Noggin
BMP4; [1]
  aLISA BMP4: A (showed an inhibitory activity of 50% or more in a zone to which the peptide was added to in an amount of 0.2 nM)
BMP7
  BMP7 inhibitory activity (in words): does not inhibit signal transduction of BMP7
BMP7; [2]
  aLISA BMP7: ND (the inhibitory activity was less than 30% at the maximum concentration evaluated)

## CC(C)[C@@H]1NC(=O)[C@H](Cc2ccc(C(=O)O)cc2)NC(=O)[C@H](C(C)C)NC(=O)[C@H](CCCNC(=N)N)NC(=O)[C@H](CCC(=O)O)NC(=O)CSCC(C(=O)NCC(N)=O)NC(=O)[C@H](CO)CC(=O)[C@H](Cc2ccc(C(=O)O)cc2)NC(=O)[C@H](Cc2ccc(C(=O)O)cc2)NC(=O)[C@H](Cc2ccc(O)cc2)NC(=O)[C@H](Cc2ccc(-c3ccccc3)cc2)NC(=O)[C@@H]2C[C@@H](O)CN2C(=O)[C@H](Cc2ccc(O)cc2)NC(=O)[C@H](CCCCNC(=O)N2CCN(CC(=O)O)CC2)NC(=O)[C@H](Cc2ccc(-c3ccccc3)nc2)CC(=O)[C@H](CCCNC(=N)N)CC(=O)[C@H](CCCCNC(=O)N2CCN(CC(=O)O)CC2)NC1=O (stereo partly drawn) [SEQ ID No. 277, ClAc-E-R-V-F4COO-V-KCOpipzaa-R-3Py6Ph-KCOpipzaa-Y-Hyp-Bph-Y-F4COO-F4COO-S-C-G-NH2] (I: K([CO-Piperazinyl(4-CH2COOH)])Y[Hyp][Bip]Y[Phe(4-COOH)][X4][ξC]G-NH2 / II: ERV[Phe(4-COOH)]V; linker I:8-II:N via X5; linker I:N-II:C via X6)
BMP4
  BMP4 inhibitory activity (in words): same level of the BMP4 inhibitory activity as Noggin
BMP4; SMAD1 phosphorylation, peptide 0.02, 0.2, 2 nM
  aLISA BMP4: A (showed an inhibitory activity of 50% or more in a zone to which the peptide was added to in an amount of 0.2 nM)
BMP7; 10 nM BMP7, peptide 1, 10, 100 nM
  aLISA BMP7: C (showed less than 50% of inhibitory activity in 10 nM-addition zone and showed 50% or more of inhibitory activity in 100 nM-addition zone)
